From patent publication US20100041074A1 (FORERUNNER PHARMA RESEARCH, published 2010)

How the values were obtained:
[1] = molecular target: T1, GST fused GRP78 protein (GST-GRP78) purified from E. coli (human, UniProt P11021 19-654); test: ELISA, plate coated with GST-GRP78 (1 µg/ml), anti-flag detection; same value told for specimens stored at 4° C., left at 37° C. overnight, or frozen and thawed
T1 construct: also called GRP78-GST fused protein; not shown: glutathione S-transferase (GST) encoded by the E. coli expression vector pGEX-6P-1 (Amersham Pharmacia), with the vector

[2] = molecular target: T2, GRP78 localized on the cell surface of human cancer cells (human, UniProt P11021 19-654); test: cell-based or functional assay
[3] = molecular target: T1, GST fused GRP78 protein (GST-GRP78) …; test: western blot, GST fused GRP78 protein (0.1 ug), antibody 2 µg/ml
[4] = molecular target: GRP78 expressed in hamster ovary cells (DG44), cell lysate (hamster, UniProt G3I8R9 19-654); test: western blot of NP40 lysate of DG44 cells with GA-20 antibody (2 µg/ml)
[5] = molecular target: T3, GST-GRP78 (376-415) (human, UniProt G3I8R9 376-415 (Cricetulus griseus entry)); test: western blot of GST fused GRP78 fragments (345-385, 376-415, 406-445)
T3 construct: not shown: glutathione S-transferase (GST) encoded by the E. coli expression vector pGEX-6P-1, with the vector's linker

[6] = molecular target: T4, GRP78 protein (amino acids 19-654) purified from E. coli (human, UniProt P11021 19-654); test: ELISA, plate coated with GRP78 protein purified from E. coli, hybridoma culture supernatant
T4 construct: Cut from the GST fusion with PreScission Protease and gel filtered; also called glucose-regulated protein 78; BiP

[7] = molecular target: T5, GRP78 expressed in human cells (cell lysate) (human, UniProt P11021 19-654); test: western blot, DU145 cell lysate, antibody 2 µg/ml
T5 construct: Endogenous GRP78 in lysates of human cell lines (DU145, MRC5 and others) after SDS-PAGE and blotting; also called GRP78 expressed in DU145 cells; GRP78 protein in cell lysates

[8] = molecular target: T6, GRP78 expressed in mouse cells (Ba/F3, NIH3T3), cell lysate (mouse, UniProt P20029 20-655); test: western blot of NP40 lysates of Ba/F3 and NIH3T3 cells with GA-20 antibody (2 µg/ml)
[9] = molecular target: T2, GRP78 localized on the cell surface of …; test: FACS on DU145 cells, antibody 10 µg/ml
[10] = molecular target: T1, GST fused GRP78 protein (GST-GRP78) …; test: ELISA, plate coated with GST-GRP78 (1 µg/ml), HisTrap fractions diluted 40-fold, anti-flag detection
[11] = molecular target: MBP-GRP78 (376-415) (human, UniProt G3I8R9 376-415 (Cricetulus griseus entry)); test: ELISA, plate coated with MBP-GRP78 (376-415) (1 µg/ml), hybridoma culture supernatant
[12] = molecular target: T2, GRP78 localized on the cell surface of …; test: FACS on prostate cancer cell lines DU145 and 22Rv1, hybridoma culture supernatant
[13] = molecular target: T5, GRP78 expressed in human cells (cell …); test: western blot of cell lysates of human cell lines with GD-17 antibody (2 µg/ml)
[14] = molecular target: T6, GRP78 expressed in mouse cells (Ba/F3, …); test: western blot of cell lysates of mouse cell lines with GD-17 antibody (2 µg/ml)

B1: toxin-labeled GD17 single-chain antibody (GD17scFv-PE40) (scFv)
scFv: MDHHHHHHHHHHKLQVQLQQSGAELARPGASVKLSCKASGYTFTSYWMHWVKQRPGQGLEWIGAIYPGDGDTRYTQKFKGKATLTADKSSSTAYMQLSSLASEDSAVYYCASGITAVADYWGQGTTLTVSSGGGGSGGGGSGGGGSDVVMTQTPLSLPVSLGDQASISCRSSQSLVHSNGNTYLHWYLQKPGQSPKLLIYKVSNRFSGVPDRFSGSGSGTDFTLKISRVEAEDLGVYFCSQSTHVPLTFGAGTKLELKEFGGAPEFPKPSTPPGSSGLEGGSLAALTAHQACHLPLETFTRHRQPRGWEQLEQCGYPVQRLVALYLAARLSWNQVDQVIRNALASPGSGGDLGEAIREQPEQARLALTLAAAESERFVRQGTGNDEAGAANADVVSLTCPVAAGECAGPADSGDALLERNYPTGAEFLGDGGDVSFSTRGTQNWTVERLLQAHRQLEERGYVFVGYHGTFLEAAQSIVFGGVRARSQDLDAIWRGFYIAGDPALAYGYAQDQEPDARGRIRNGALLRVYVPRSSLPGFYRTSLTLAAPEAAGEVERLIGHPLPLRLDAITGPEEEGGRLETILGWPLAERTVVIPSAIPTDPRNVGGDLDPSSIPDKEQAISALPDYASQPGKPPDYKDDDDKKDEL
notes: also called GA17_scFv-PE40
With B1 the EC50 [1] was ~1.3 nM and the “cytotoxic activity, EC50 on MCF7 and 22Rv1 cells” value [2] was 2 to 4 nM.

B2: GA-20 antibody (antibody, IgM, V domains shown)
VH: EVQLQQSGPELVKPGASVKISCKTSGYTFTEYTMHWVKQSHGKSLEWIGGINPNNGGTSYNQKFKGKATLTVDKSSSTAYMELRSLTSEDSAVYYCAREKYGNYYAMDYWGQGTSVTVSS
VL: DIVMSQSPSSLAVSAGEKVTMSCKSSQSLLNSRTRKNYLAWYQQKPGQSPKLLIYWASTRESGVPDRFTGSGSGTDFTLTISSVQAEDLAVYYCKQSYNLRTFGGGTKLEIK
notes: Mouse monoclonal from hybridoma, subtype M (IgM); light chain cloned with a kappa primer
B2: binds [3]; binds [4]; binds [5]. B2: binds [6]; binds [7]; binds [8]. B2: binds [9].

B3: toxin-labeled GA-20 single-chain Fv antibody (GA20-PE40) (scFv)
scFv: MDHHHHHHHHHHKLEVQLQQSGPELVKPGASVKISCKTSGYTFTEYTMHWVKQSHGKSLEWIGGINPNNGGTSYNQKFKGKATLTVDKSSSTAYMELRSLTSEDSAVYYCAREKYGNYYAMDYWGQGTSVTVSSGGGGSGGGGSGGGGSDIVMSQSPSSLAVSAGEKVTMSCKSSQSLLNSRTRKNYLAWYQQKPGQSPKLLIYWASTRESGVPDRFTGSGSGTDFTLTISSVQAEDLAVYYCKQSYNLRTFGGGTKLEIKEFGGAPEFPKPSTPPGSSGLEGGSLAALTAHQACHLPLETFTRHRQPRGWEQLEQCGYPVQRLVALYLAARLSWNQVDQVIRNALASPGSGGDLGEAIREQPEQARLALTLAAAESERFVRQGTGNDEAGAANADVVSLTCPVAAGECAGPADSGDALLERNYPTGAEFLGDGGDVSFSTRGTQNWTVERLLQAHRQLEERGYVFVGYHGTFLEAAQSIVFGGVRARSQDLDAIWRGFYIAGDPALAYGYAQDQEPDARGRIRNGALLRVYVPRSSLPGFYRTSLTLAAPEAAGEVERLIGHPLPLRLDAITGPEEEGGRLETILGWPLAERTVVIPSAIPTDPRNVGGDLDPSSIPDKEQAISALPDYASQPGKPPDYKDDDDKKDEL
notes: also called GA20scFv-PE40; toxin-labeled GA-20 scFv antibody
B3: binds [10].

B4: GC-18 antibody (antibody, IgG1, V domains shown)
VH: DVRLQESGPGQVKPSQTVSLTCSVTGYSITNGNHWWNWIRQVSGSKLEWIGYISSSGSTDSNPSLKSRISITRDTSKNQLFLQLNSVTTEDIATYYCARGYYFDYWGQGTTLTVSS
VL: DIVLTQSPASLAVSLGQSVTISCRASESVEYYGTSLMQWYQQKPGQPPKLLIYATSNVESGVPARFSGSGSGTDFSLNIHPVEEDDIAMYFCQQSRKLPSTFGGGTKLEIK
notes: Mouse monoclonal from hybridoma, subtype G1 (IgG1)
B4: binds [11]; binds [12].

B5: GD-4 antibody (antibody, IgG1, V domains shown)
VH: EVQLVETGGGLVQPKGSLKLSCAASGFTFNTNAMNWVRQAPGKGLEWVARIRSKSNNYAAYYADSVKDRFTISRDDSQSMLYLQMNNLKTEDTAMYYCVREGYGYSLYFDYWGQGTTLTVSS
VL: DIVMTQSPTFLAVTASKKVTINCTASESLYSSKHKVHYLAWYQKKPDQSPKLLIYGASNRYIGVPDRFTGSGSGTDFTLTISSVQVEDLTHYYCAQFYSYPLTFGAGTKLELK
notes: as for B4
B5: binds [11]; binds [12].

B6: GD-17 antibody (antibody, IgG1, V domains shown)
VH: QVQLQQSGAELARPGASVKLSCKASGYTFTSYWMHWVKQRPGQGLEWIGAIYPGDGDTRYTQKFKGKATLTADKSSSTAYMQLSSLASEDSAVYYCASGITAVADYWGQGTTLTVSS
VL: DVVMTQTPLSLPVSLGDQASISCRSSQSLVHSNGNTYLHWYLQKPGQSPKLLIYKVSNRFSGVPDRFSGSGSGTDFTLKISRVEAEDLGVYFCSQSTHVPLTFGAGTKLELK
notes: as for B4
B6: binds [11]; binds [13]; binds [14]. B6: binds [12].
